Non-standard residues stand in square brackets, D forms with d.
Target: MMP-8 (Homo sapiens, UniProt P22894)
Experiment: Enzymatic peptide cleavage by matrix metalloproteinases
Format: biochemical
Conditions: after cleavage from the resin; activated MMP, 1 h at 37° C., pH 7.0; LC-MS
Method: (§1) For that, a 2-3 hour activation of the pre-MMP by p-aminophenyl mercury acetate (APMA 10 mM in 0.1 M NaOH) in a ratio of 10:1 (MMP:APMA v/v) takes place at 37° C. Subsequently, the activated MMP is added to the peptides dissolved in buffer (200 mM NaCl, 50 mM Tris-HCl, 5 mM CaCl2, 1 μM ZnCl2, 0.05% BRIJ® 35, 0.05% NaN3, pH 7.0) in defined concentrations (9 ng/ml, 45 ng/ml, 90 ng/ml, 225 ng/ml, 450 ng/ml, and 900 ng/ml) and incubated for 1 h at 37° C. The reaction is stopped by separation/filtration of the MMP by centrifugation or addition of 10 equivalents of EDTA (250 mM). The cleavage products are analyzed by liquid chromatography with masse spectrometry coupling (LC-MS).
as §1, with “concentrations” for “concentrations (9 ng/ml, 45 ng/ml, 90 ng/ml, 225 ng/ml, 450 ng/ml, and 900 ng/ml)”, “mass” for “masse”

Sequence of MMP-8 (P22894 101-467, species assumed): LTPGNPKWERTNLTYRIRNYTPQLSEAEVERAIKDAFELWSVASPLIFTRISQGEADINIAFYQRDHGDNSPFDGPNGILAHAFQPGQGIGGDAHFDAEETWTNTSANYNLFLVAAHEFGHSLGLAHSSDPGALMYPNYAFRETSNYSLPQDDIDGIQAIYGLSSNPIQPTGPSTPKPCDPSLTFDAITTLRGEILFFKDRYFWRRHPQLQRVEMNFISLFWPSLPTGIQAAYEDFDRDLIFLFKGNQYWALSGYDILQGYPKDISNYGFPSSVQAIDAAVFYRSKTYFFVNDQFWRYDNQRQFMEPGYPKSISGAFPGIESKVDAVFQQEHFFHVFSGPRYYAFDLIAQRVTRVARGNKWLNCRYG

NH2-G-p-q-G-I-A-G-q-Q—COOH: peptide modified by replacing L by D amino acids (small letters mean D-amino acids) (H-G[dP][dQ]GIAG[dQ]Q-OH; SMILES CC[C@H](C)[C@H](NC(=O)CNC(=O)[C@@H](CCC(N)=O)NC(=O)[C@H]1CCCN1C(=O)CN)C(=O)N[C@@H](C)C(=O)NCC(=O)N[C@H](CCC(N)=O)C(=O)N[C@@H](CCC(N)=O)C(=O)O)
cleavage by matrix metalloproteinases (MMP) such as MMP-8: specifically cleaved

— patent US12129222B2, “Production of bitter principle derivatives” (Julius-Maximilians-Universitaet Wuerzburg, priority 2016, dated 2024)
